Literature values, collected in US9034821B2, “Pharmaceutical composition” (priority 2011, dated 2015).
Read-outs that look alike come from different tables or passages of the source.

Question: What does the source list for “Cys-Tyr-Ile-Gln-Asn-Cys-Pro-Leu-Gly-NH2 [oxytocin]”?
Answer: pH of best stability (aqueous solutions of different pH): 4.5; degradation of oxytocin (buffered aqueous solution of pH 3, stored at 70° C. for 7 days): about 15 % (area %); degradation of oxytocin (buffered aqueous solution, pH 4, stored at 70° C. for 7 days): approximately 35 % (area %)
